T1: ParB CTD (Bacillus subtilis, UniProt P26497 217-282)
T1 sequence: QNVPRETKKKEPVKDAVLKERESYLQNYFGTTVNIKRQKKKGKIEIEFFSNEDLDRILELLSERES

B1: 10-bp hairpin DNA (structured_DNA)
DNA: GCGTACATCATTCCCTGATGTACGC
B2: BsParB(A232G), full length (natural protein)
chain: MAKGLGKGINALFNQVDLSEETVEEIKIADLRPNPYQPRKHFDDEALAELKESVLQHGILQPLIVRKSLKGYDIVAGERRFRAAKLAGLDTVPAIVRELSEALMREIALLENLQREDLSPLEEAQAYDSLLKHLDLTQEQLAKRLGKSRPHIANHLRLLTLPENIQQLIAEGTLSMGHGRTLLGLKNKNKLEPLVQKVIAEQLNVRQLEQLIQQLNQNVPRETKKKEPVKDGVLKERESYLQNYFGTTVNIKRQKKKGKIEIEFFSNEDLDRILELLSERES
B3: BsParB(K257A), full length (natural protein)
chain: MAKGLGKGINALFNQVDLSEETVEEIKIADLRPNPYQPRKHFDDEALAELKESVLQHGILQPLIVRKSLKGYDIVAGERRFRAAKLAGLDTVPAIVRELSEALMREIALLENLQREDLSPLEEAQAYDSLLKHLDLTQEQLAKRLGKSRPHIANHLRLLTLPENIQQLIAEGTLSMGHGRTLLGLKNKNKLEPLVQKVIAEQLNVRQLEQLIQQLNQNVPRETKKKEPVKDAVLKERESYLQNYFGTTVNIKRQKKAGKIEIEFFSNEDLDRILELLSERES
B4: BsParB(K252A-K255A-K259A) (natural protein)
chain: MAKGLGKGINALFNQVDLSEETVEEIKIADLRPNPYQPRKHFDDEALAELKESVLQHGILQPLIVRKSLKGYDIVAGERRFRAAKLAGLDTVPAIVRELSEALMREIALLENLQREDLSPLEEAQAYDSLLKHLDLTQEQLAKRLGKSRPHIANHLRLLTLPENIQQLIAEGTLSMGHGRTLLGLKNKNKLEPLVQKVIAEQLNVRQLEQLIQQLNQNVPRETKKKEPVKDAVLKERESYLQNYFGTTVNIARQAKKGAIEIEFFSNEDLDRILELLSERES
B5: BsParB(K252A-K259A) (natural protein)
chain: MAKGLGKGINALFNQVDLSEETVEEIKIADLRPNPYQPRKHFDDEALAELKESVLQHGILQPLIVRKSLKGYDIVAGERRFRAAKLAGLDTVPAIVRELSEALMREIALLENLQREDLSPLEEAQAYDSLLKHLDLTQEQLAKRLGKSRPHIANHLRLLTLPENIQQLIAEGTLSMGHGRTLLGLKNKNKLEPLVQKVIAEQLNVRQLEQLIQQLNQNVPRETKKKEPVKDAVLKERESYLQNYFGTTVNIARQKKKGAIEIEFFSNEDLDRILELLSERES
B6: BsParB(K259A), full length (natural protein)
chain: MAKGLGKGINALFNQVDLSEETVEEIKIADLRPNPYQPRKHFDDEALAELKESVLQHGILQPLIVRKSLKGYDIVAGERRFRAAKLAGLDTVPAIVRELSEALMREIALLENLQREDLSPLEEAQAYDSLLKHLDLTQEQLAKRLGKSRPHIANHLRLLTLPENIQQLIAEGTLSMGHGRTLLGLKNKNKLEPLVQKVIAEQLNVRQLEQLIQQLNQNVPRETKKKEPVKDAVLKERESYLQNYFGTTVNIKRQKKKGAIEIEFFSNEDLDRILELLSERES
B7: BsParB(K252A), full length (natural protein)
chain: MAKGLGKGINALFNQVDLSEETVEEIKIADLRPNPYQPRKHFDDEALAELKESVLQHGILQPLIVRKSLKGYDIVAGERRFRAAKLAGLDTVPAIVRELSEALMREIALLENLQREDLSPLEEAQAYDSLLKHLDLTQEQLAKRLGKSRPHIANHLRLLTLPENIQQLIAEGTLSMGHGRTLLGLKNKNKLEPLVQKVIAEQLNVRQLEQLIQQLNQNVPRETKKKEPVKDAVLKERESYLQNYFGTTVNIARQKKKGKIEIEFFSNEDLDRILELLSERES
B8: BsParB(K256A), full length (natural protein)
chain: MAKGLGKGINALFNQVDLSEETVEEIKIADLRPNPYQPRKHFDDEALAELKESVLQHGILQPLIVRKSLKGYDIVAGERRFRAAKLAGLDTVPAIVRELSEALMREIALLENLQREDLSPLEEAQAYDSLLKHLDLTQEQLAKRLGKSRPHIANHLRLLTLPENIQQLIAEGTLSMGHGRTLLGLKNKNKLEPLVQKVIAEQLNVRQLEQLIQQLNQNVPRETKKKEPVKDAVLKERESYLQNYFGTTVNIKRQKAKGKIEIEFFSNEDLDRILELLSERES
B9: BsParB(K255A), full length (natural protein)
chain: MAKGLGKGINALFNQVDLSEETVEEIKIADLRPNPYQPRKHFDDEALAELKESVLQHGILQPLIVRKSLKGYDIVAGERRFRAAKLAGLDTVPAIVRELSEALMREIALLENLQREDLSPLEEAQAYDSLLKHLDLTQEQLAKRLGKSRPHIANHLRLLTLPENIQQLIAEGTLSMGHGRTLLGLKNKNKLEPLVQKVIAEQLNVRQLEQLIQQLNQNVPRETKKKEPVKDAVLKERESYLQNYFGTTVNIKRQAKKGKIEIEFFSNEDLDRILELLSERES

These binders were tested against T1, ParB CTD (assay: NMR).
B1: binds.

Biological target: the molecule itself
Experiment: SEC-MALS
B2 was tested, and the “stoichiometry N” value was 2.
With B3 the “stoichiometry N” value was 2.
B4: binds.
B5: binds.
With B6 the “stoichiometry N” value was 2.
In the case of B7, the “stoichiometry N” value is reported as 2.
In the case of B8, the “stoichiometry N” value is reported as 2.
For B9, the “stoichiometry N” value was 2.
